Measurements published in US20100272750A1.
Read-outs that look alike come from different tables or passages of the source.

Tests used:
Test in all cases: 125I-probe competition, purified HLA
HLA A3002 (human) = molecular target: HLA A3002 (human)
HLA A2902 (human) = molecular target: HLA A2902 (human)
HLA A0101 (human) = molecular target: HLA A0101 (human)
HLA A2601 (human) = molecular target: HLA A2601 (human)
HLA A0203 (human) = molecular target: HLA A0203 (human)
HLA A0202 (human) = molecular target: HLA A0202 (human)
HLA A0201 (human) = molecular target: HLA A0201 (human)
HLA A0206 (human) = molecular target: HLA A0206 (human)
HLA A3101 (human) = molecular target: HLA A3101 (human)
HLA A1101 (human) = molecular target: HLA A1101 (human)
HLA A6801 (human) = molecular target: HLA A6801 (human)
HLA A0301 (human) = molecular target: HLA A0301 (human)
HLA A2402 (human) = molecular target: HLA A2402 (human)
HLA A2302 (human) = molecular target: HLA A2302 (human)
[1] = remark: other sources report otherwise

Binder ATCVSHRGLY (modifications not checked) [HPV18.E2.154] has an IC50 (HLA A3002 (human)) of 28 nM, an IC50 (HLA A2902 (human)) of 4210 nM and an IC50 (HLA A0101 (human)) of 421 nM. It also gave an IC50 (HLA A2601 (human)) of 646 nM.

In the case of KLLSKLLCV (modifications not checked) [HPV16.E1.292], the IC50 (HLA A0203 (human)) is reported as 23 nM, the IC50 (HLA A0202 (human)) is reported as 67.7 nM and the IC50 (HLA A0201 (human)) is reported as 31 nM. The IC50 (HLA A0206 (human)) was 125 nM.

KLLEKLLCI (modifications not checked) [HPV31.E1.272] showed an IC50 (HLA A0203 (human)) of 2.4 nM, an IC50 (HLA A0202 (human)) of 21 nM and an IC50 (HLA A0201 (human)) of 19 nM. For the same binder, the IC50 (HLA A0206 (human)) was 51 nM.

Binder TLEKLTNTGLY (modifications not checked) [HPV18.E6.89] has an IC50 (HLA A3002 (human); [1]) of 476 nM and an IC50 (HLA A2601 (human); [1]) of 265 nM.

Work on KLTNKGICDL (modifications not checked) [HPV31.E6.90] yielded an IC50 (HLA A0203 (human)) of 585 nM, an IC50 (HLA A0202 (human)) of 440 nM and an IC50 (HLA A0201 (human)) of 205 nM. It also gave an IC50 (HLA A0206 (human)) of 484 nM.

With KQGAMLAVFK (modifications not checked) [HPV18.E1.210] the IC50 (HLA A3101 (human)) was 519 nM, the IC50 (HLA A1101 (human)) was 11 nM and the IC50 (HLA A6801 (human)) was 235 nM. For the same binder, the IC50 (HLA A0301 (human)) was 35 nM.

TVSATQLVK (modifications not checked) [HPV18.E2.211] gave an IC50 (HLA A3101 (human)) of 6140 nM, an IC50 (HLA A1101 (human)) of 4 nM and an IC50 (HLA A6801 (human)) of 31 nM. The IC50 (HLA A0301 (human)) was 7 nM.

Binder STVSVGTAK (modifications not checked) [HPV18.E2.230] has an IC50 (HLA A3101 (human)) of 1760 nM, an IC50 (HLA A1101 (human)) of 6 nM and an IC50 (HLA A6801 (human)) of 10 nM. It also gave an IC50 (HLA A0301 (human)) of 34 nM.

For QVVPAYNISK (modifications not checked) [HPV18.E2.61], the IC50 (HLA A3101 (human)) was 6660 nM, the IC50 (HLA A1101 (human)) was 14 nM and the IC50 (HLA A6801 (human)) was 8 nM. For the same binder, the IC50 (HLA A0301 (human)) was 308 nM.

ATLQDIVLH (modifications not checked) [HPV18.E7.6] gave an IC50 (HLA A3101 (human)) of 543 nM, an IC50 (HLA A1101 (human)) of 11 nM and an IC50 (HLA A0301 (human)) of 211 nM.

With STDLRDHIDY (modifications not checked) [HPV16.E2.23] the IC50 (HLA A3002 (human)) was 17 nM, the IC50 (HLA A0101 (human)) was 113 nM and the IC50 (HLA A2601 (human)) was 758 nM.

In the case of KSLFGMSLMK (modifications not checked) [HPV16.E1.483], the IC50 (HLA A3101 (human)) is reported as 230 nM, the IC50 (HLA A1101 (human)) is reported as 2 nM and the IC50 (HLA A6801 (human)) is reported as 887 nM. It also gave an IC50 (HLA A0301 (human)) of 3.9 nM.

With AATKYPLLK (modifications not checked) [HPV16.E4.9] the IC50 (HLA A1101 (human)) was 20 nM and the IC50 (HLA A0301 (human)) was 59 nM.

KSAIVTLTY (modifications not checked) [HPV16.E2.329] was tested, and the IC50 (HLA A3002 (human)) was 6 nM and the IC50 (HLA A0101 (human)) was 9 nM.

With ATTPIIHLK (modifications not checked) [HPV31.E2.291] the IC50 (HLA A3101 (human)) was 34 nM, the IC50 (HLA A1101 (human)) was 1.2 nM and the IC50 (HLA A6801 (human)) was 2.5 nM. The IC50 (HLA A0301 (human)) was 10 nM.

With RQMNMSQWIK (modifications not checked) [HPV45.E1.411] the IC50 (HLA A3101 (human)) was 45 nM, the IC50 (HLA A1101 (human)) was 11 nM and the IC50 (HLA A6801 (human)) was 2560 nM. The IC50 (HLA A0301 (human)) was 15 nM.

Work on SVYGETLEK (modifications not checked) [HPV45.E6.84] yielded an IC50 (HLA A3101 (human)) of 6510 nM, an IC50 (HLA A1101 (human)) of 9.5 nM and an IC50 (HLA A6801 (human)) of 7.2 nM. For the same binder, the IC50 (HLA A0301 (human)) was 21 nM.

Work on SYFGMSFIHF (modifications not checked) [HPV18/45.E1.491] yielded an IC50 (HLA A3002 (human)) of 1540 nM, an IC50 (HLA A2402 (human)) of 17.5 nM and an IC50 (HLA A2302 (human)) of 4.3 nM. It also gave an IC50 (HLA A2902 (human)) of 62 nM.

Work on YYMTDAGTW (modifications not checked) [HPV18.E2.142] yielded an IC50 (HLA A3002 (human)) of 2150 nM, an IC50 (HLA A2402 (human)) of 3.2 nM and an IC50 (HLA A2302 (human)) of 14 nM. For the same binder, the IC50 (HLA A2902 (human)) was 3410 nM.

In the case of GYNTFYIEF (modifications not checked) [HPV18.E2.168], the IC50 (HLA A3002 (human)) is reported as 1260 nM, the IC50 (HLA A2302 (human)) is reported as 13 nM and the IC50 (HLA A2902 (human)) is reported as 835 nM.

In the case of MYVCCHVPL (modifications not checked) [HPV18.E5.14], the IC50 (HLA A3002 (human)) is reported as 4720 nM, the IC50 (HLA A2402 (human)) is reported as 15 nM and the IC50 (HLA A2302 (human)) is reported as 24 nM.

Work on VYVFCFLLPM (modifications not checked) [HPV18.E5.52] yielded an IC50 (HLA A2402 (human)) of 178 nM, an IC50 (HLA A2302 (human)) of 57 nM and an IC50 (HLA A2902 (human)) of 5280 nM.

In the case of LYGVSFSEL (modifications not checked) [HPV16.E1.214], the IC50 (HLA A2402 (human)) is reported as 3.1 nM and the IC50 (HLA A2302 (human)) is reported as 7.2 nM.

Work on VYDFAFRDLCI (modifications not checked) [HPV16.E6.49] yielded an IC50 (HLA A2402 (human)) of 22 nM and an IC50 (HLA A2302 (human)) of 8.9 nM.

PYLHSRLVVF (modifications not checked) [HPV31.E1.557] showed an IC50 (HLA A3002 (human)) of 2230 nM, an IC50 (HLA A2402 (human)) of 38.7 nM and an IC50 (HLA A2302 (human)) of 2.8 nM. It also gave an IC50 (HLA A2902 (human)) of 4360 nM.

Work on VFTFPNPFPF (modifications not checked) [HPV31.E1.565] yielded an IC50 (HLA A2402 (human)) of 17 nM, an IC50 (HLA A2302 (human)) of 12 nM and an IC50 (HLA A2902 (human)) of 603 nM.

Work on VVFIYIPLF (modifications not checked) [HPV31.E5.64] yielded an IC50 (HLA A3002 (human)) of 268 nM, an IC50 (HLA A2402 (human)) of 276 nM and an IC50 (HLA A2302 (human)) of 108 nM. The IC50 (HLA A2902 (human)) was 302 nM.

Binder FYSKVSEFRW (modifications not checked) [HPV31.E6.69] has an IC50 (HLA A3002 (human)) of 1360 nM, an IC50 (HLA A2402 (human)) of 4.5 nM and an IC50 (HLA A2302 (human)) of 8.8 nM. The IC50 (HLA A2902 (human)) was 1780 nM.

In the case of VYGTTLEKL (modifications not checked) [HPV31.E6.83], the IC50 (HLA A3002 (human)) is reported as 1240 nM, the IC50 (HLA A2402 (human)) is reported as 26 nM and the IC50 (HLA A2302 (human)) is reported as 8.2 nM.

VMDDSEIAY (modifications not checked) [HPV31.E1.349] was tested, and the IC50 (HLA A3002 (human)) was 2550 nM, the IC50 (HLA A2902 (human)) was 95 nM and the IC50 (HLA A0101 (human)) was 18 nM.

With VFTFPHAFPF (modifications not checked) [HPV45.E1.578] the IC50 (HLA A2402 (human)) was 90.4 nM, the IC50 (HLA A2302 (human)) was 15.9 nM and the IC50 (HLA A2902 (human)) was 57 nM.

YYITETGIW (modifications not checked) [HPV45.E2.144] was tested, and the IC50 (HLA A2402 (human)) was 8.5 nM and the IC50 (HLA A2302 (human)) was 2 nM.

VYQFAFKDL (modifications not checked) [HPV45.E6.44] showed an IC50 (HLA A3002 (human)) of 165 nM, an IC50 (HLA A2402 (human)) of 4 nM and an IC50 (HLA A2302 (human)) of 1.1 nM.

In the case of AFTDLTIVY (modifications not checked) [HPV31.E6.46], the IC50 (HLA A3002 (human)) is reported as 71 nM, the IC50 (HLA A2902 (human)) is reported as 36 nM and the IC50 (HLA A0101 (human)) is reported as 31 nM.

With LQDKILDHY (modifications not checked) [HPV45.E2.17] the IC50 (HLA A3002 (human)) was 836 nM, the IC50 (HLA A0101 (human)) was 32 nM and the IC50 (HLA A2601 (human)) was 5000 nM.

NTELYNLLI (modifications not checked) [HPV45.E6.95] was tested, and the IC50 (HLA A0101 (human)) was 32 nM and the IC50 (HLA A2601 (human)) was 17300 nM.

In the case of ELDPVDLLCY (modifications not checked) [HPV45.E7.20], the IC50 (HLA A2902 (human)) is reported as 4290 nM, the IC50 (HLA A0101 (human)) is reported as 26 nM and the IC50 (HLA A2601 (human)) is reported as 2110 nM.

Binder ILYAHIQCL (modifications not checked) [HPV18.E1.266] has an IC50 (HLA A0203 (human); [1]) of 10.2 nM, an IC50 (HLA A0202 (human); [1]) of 8.5 nM and an IC50 (HLA A0201 (human); [1]) of 33 nM. For the same binder, the IC50 (HLA A0206 (human); [1]) was 236 nM.

Work on SLQDIEITCV (modifications not checked) [HPV18.E6.24] yielded an IC50 (HLA A0203 (human)) of 38 nM, an IC50 (HLA A0202 (human)) of 25 nM and an IC50 (HLA A0201 (human)) of 153 nM. It also gave an IC50 (HLA A0206 (human)) of 205 nM.
